From article doi:10.1101/2022.04.26.489529 (bioRxiv, 2022) come the findings set out here.

The stoichiometry N is a count of units in the complex or per binding partner.

The target of test [1] is S protein of the SARS-CoV-2 strain D614G (SARS-CoV-2, D614G, UniProt A0A6H1PJZ3, D614G). The experiment in a line: ELISA.
Test [2] has as its target stabilized Omicron S ECD HexaPro (SARS-CoV-2 Omicron BA.1, N440K | S477N | T478K | E484A | Q493R). The test can be described thus: cryo-EM structure.

B1: 58G6 (antibody, V domains shown)
VH: QMQLVQSGPEVKKPGTSVKVSCKASGFTFSSSAVQWVRQARGQHLEWIGWIVVGSGNTNYAQKFQERVTLTRDMSTRTAYMELSSLRSEDTAVYYCAAPNCNSTTCHDGFDIWGQGTVVTVSS
VL: EIVLTQSPGTLSLSPGERATLSCRASQSVRSSYLGWYQQKPGQAPRLLIYGASSRATGIPDRFSGSGSGTDFTLTISRLESEDFAVYYCQQYDNSPWTFGQGTKVEIK
In the case of B1, the binding result in test [1] is reported as “binds”.

B2: 58G6 Fab (Fab, V domains shown)
VH: B1 VH
VL: B1 VL
Regarding B2, the “stoichiometry N” value in test [2] was determined as 1 Fab per trimer.
